Among the data in paper PMC4270767 (PLoS ONE, 2014) are rearrangement of microtubules values, retold here.

The assay concerns THP-1 cells. It counts as cell-based. The note with it: 100 µg of purified protein, 30 minutes and 2 hours.

B1: ACT-domains: ACT domains of MtSerB2 alone (residues 1–165) (protein, UniProt O53289 1-165, looked up, fragment)
chain: MPAKVSVLITVTGMDQPGVTSALFEVLAQHGVELLNVEQVVIRGRLTLGVLVSCPLDVADGTALRDDVAAAIHGVGLDVAIERSDDLPIIRQPSTHTIFVLGRPITAGAFSAVARGVAALGVNIDFIRGISDYPVTGLELRVSVPPGCVGPLQIALTKVAAEEHV
modifications: ACT domains
In the case of B1, the rearrangement of microtubules result is given as “almost no re-arrangement of the microtubules”.

B2: PSPD: phosphoserine phosphatase domain of MtSerB2 alone (residues 165–409) (protein, UniProt O53289 165-409, looked up, fragment)
chain: VDVAVEDYGLAWRTKRLIVFDVDSTLVQGEVIEMLAARAGAQGQVAAITEAAMRGELDFAESLQRRVATLAGLPATVIDDVAEQLELMPGARTTIRTLRRLGFRCGVVSGGFRRIIEPLARELMLDFVASNELEIVDGILTGRVVGPIVDRPGKAKALRDFASQYGVPMEQTVAVGDGANDIDMLGAAGLGIAFNAKPALREVADASLSHPYLDTVLFLLGVTRGEIEAADAGDCGVRRVEIPAD
modifications: phosphoserine phosphatase domain
Take B2: the rearrangement of microtubules result is “significant”.

B3: Wild-type: recombinant hexa-his-tagged M. tuberculosis phosphoserine phosphatase SerB2 (Rv3042c) (protein, UniProt O53289 1-409, looked up)
chain: MPAKVSVLITVTGMDQPGVTSALFEVLAQHGVELLNVEQVVIRGRLTLGVLVSCPLDVADGTALRDDVAAAIHGVGLDVAIERSDDLPIIRQPSTHTIFVLGRPITAGAFSAVARGVAALGVNIDFIRGISDYPVTGLELRVSVPPGCVGPLQIALTKVAAEEHVDVAVEDYGLAWRTKRLIVFDVDSTLVQGEVIEMLAARAGAQGQVAAITEAAMRGELDFAESLQRRVATLAGLPATVIDDVAEQLELMPGARTTIRTLRRLGFRCGVVSGGFRRIIEPLARELMLDFVASNELEIVDGILTGRVVGPIVDRPGKAKALRDFASQYGVPMEQTVAVGDGANDIDMLGAAGLGIAFNAKPALREVADASLSHPYLDTVLFLLGVTRGEIEAADAGDCGVRRVEIPAD
modifications: full-length His6 tag
As to B3, the rearrangement of microtubules result is reported as “striking rearrangement of microtubules”.
